According to patent US20230057263A1:

T1: (H2N-…-OH) vCD3e #p2-BSA
T1 sequence (peptide, conjugated to BSA): CPQYPGSEILWQHNDK

T2: (H2N-…-OH) vCD3e #p3-BSA
T2 sequence (peptide, conjugated to BSA): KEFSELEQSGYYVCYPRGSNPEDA


Legend:
(H2N-…-OH) vCD3e #p2-BSA = molecular target: T1, (H2N-…-OH) vCD3e #p2-BSA; test: Luminex bead assay, 1 ug/ml antibody [Cont.]
[1] = molecular target: human CD3 epsilon (CD3ε) (human) (UniProt P07766); test: flow cytometry on human T cells
[2] = molecular target: cynomolgus CD3-epsilon (cynomolgus) (UniProt Q95LI5); test: flow cytometry on cynomolgus T cells
Chain of cynomolgus CD3-epsilon (cynomolgus) (Q95LI5 22-198): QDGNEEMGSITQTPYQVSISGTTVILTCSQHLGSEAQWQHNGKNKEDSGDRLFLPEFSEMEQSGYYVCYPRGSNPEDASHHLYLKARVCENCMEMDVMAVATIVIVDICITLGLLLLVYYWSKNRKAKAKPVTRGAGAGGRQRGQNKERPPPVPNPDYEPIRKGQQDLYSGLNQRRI

(H2N-…-OH) vCD3e #p3-BSA = molecular target: T2, (H2N-…-OH) vCD3e #p3-BSA; test: Luminex bead assay, 1 ug/ml antibody [Cont.]
BSA alone (bovine) = BSA alone (bovine) (UniProt P02769); test: Luminex bead assay, 1 ug/ml antibody [Cont.]
Chain of BSA alone (bovine) (P02769 25-607 limits assumed): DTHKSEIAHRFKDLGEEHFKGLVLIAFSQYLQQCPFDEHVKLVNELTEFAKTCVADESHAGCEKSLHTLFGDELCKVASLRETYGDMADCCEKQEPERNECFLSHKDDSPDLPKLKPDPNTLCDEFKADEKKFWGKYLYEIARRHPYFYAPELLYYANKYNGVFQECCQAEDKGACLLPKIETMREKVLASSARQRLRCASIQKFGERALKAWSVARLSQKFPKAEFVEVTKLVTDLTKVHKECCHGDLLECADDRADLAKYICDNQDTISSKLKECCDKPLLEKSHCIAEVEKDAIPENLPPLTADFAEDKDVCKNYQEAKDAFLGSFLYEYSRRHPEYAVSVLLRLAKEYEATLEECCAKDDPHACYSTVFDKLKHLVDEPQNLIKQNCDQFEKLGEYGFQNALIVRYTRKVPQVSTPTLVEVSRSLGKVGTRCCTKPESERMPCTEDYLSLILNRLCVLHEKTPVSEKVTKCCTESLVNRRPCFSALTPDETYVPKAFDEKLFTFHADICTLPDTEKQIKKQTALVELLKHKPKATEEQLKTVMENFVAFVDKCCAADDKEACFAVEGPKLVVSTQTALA

[3] = molecular target: biotinylated 15-mer peptide corresponding to the CD3ε N-terminus (human) (UniProt P07766); test: Luminex bead assay, 1 ug/ml antibody [Cont.]
[4] = molecular target: huCD3d/eCHO-E DT1331 (human) (UniProt P04234); test: Luminex bead assay, 1 ug/ml antibody [Cont.]
Chain of huCD3d/eCHO-E DT1331 (human) (P04234 22-105): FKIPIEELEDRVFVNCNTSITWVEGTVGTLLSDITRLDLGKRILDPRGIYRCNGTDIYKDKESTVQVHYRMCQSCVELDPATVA

vCD3e #p1 peptide = test: Luminex bead assay, 1 ug/ml antibody [Cont.]
[5] = molecular target: cynomolgus CD3-epsilon (cynomolgus) (UniProt Q95LI5); test: Luminex bead assay, 1 ug/ml antibody; recombinant cyno CD3 (sinobiologicals) on beads [Cont.]

| Luminex signal ((H2N-…-OH) vCD3e #p2-BSA) | EC50 (read off the curve) [1] | EC50 (read off the curve) [2] | Luminex signal ((H2N-…-OH) vCD3e #p3-BSA) | Luminex signal (BSA alone (bovine)) | Luminex signal [3] | Luminex signal [4] | Luminex signal (vCD3e #p1 peptide) | Luminex signal [5] | Binder |
| --- | --- | --- | --- | --- | --- | --- | --- | --- | --- |
| 238 |  |  |  |  |  |  |  |  | 6d59 (antibody, V domains shown) VH: QVHLVESGGGVVQPGRSLRLSCAASGFKFRSYGMHWVRQAPGKGLEWVAIIWYDGSKRYYADSVKGRFTISRDNSKNTLYLQMSSLRAEDTAVYYCARDLITGTTDYWGQGTLVTVSS VL: DVVMTQSPLSLPVTLGQPASISCRSSRSLVYSDGNTHLIWFQQRPGQSPRRLIYRVSNRVSGVPDRFSGSGSGTDFTLKISRVEAEDVGVYYCLQGAHWPYTFGQGTKLEIKR |
| 184 | 0.2 nM | 0.3 nM | 439 | 398 | 6.5 | 22100 | 17900 | 17200 | SP34-2 (antibody, from a related filing, V domains shown) VH: EVQLVESGGGLVQPKGSLKLSCAASGFTFNTYAMNWVRQAPGKGLEWVARIRSKYNNYATYYADSVKDRFTISRDDSQSILYLQMNNLKTEDTAMYYCVRHGNFGNSYVSWFAYWGQGTLVTVSA VL: QAVVTQESALTTSPGETVTLTCRSSTGAVTTSNYANWVQEKPDHLFTGLIGGTNKRAPGVPARFSGSLIGDKAALTITGAQTEDEAIYFCALWYSNLWVFGGGTKLTVL |
